Reference: PMC3755756 (Developmental cell, 2013)

B1: V domain of HD-PTP (domain or fragment, human, UniProt Q9H3S7 401-714, looked up)
chain: MQLDPETVDNLDAYSHIPPQLMEKCAALSVRPDTVRNLVQSMQVLSGVFTDVEASLKDIRDLLEEDELLEQKFQEAVGQAGAISITSKAELAEVRREWAKYMEVHEKASFTNSELHRAMNLHVGNLRLLSGPLDQVRAALPTPALSPEDKAVLQNLKRILAKVQEMRDQRVSLEQQLRELIQKDDITASLVTTDHSEMKKLFEEQLKKYDQLKVYLEQNLAAQDRVLCALTEANVQYAAVRRVLSDLDQKWNSTLQTLVASYEAYEDLMKKSQEGRDFYADLESKVAALLERTQSTCQAREAARQQLLDRELKK
B2: V domain of human Alix (domain or fragment)
chain: FEKMVPVSVQQSLAAYNQRKADLVNRSIAQMREATTLANGVLASLNLPAAIEDVSGDTVPQSILTKSRSVIEQGGIQTVDQLIKELPELLQRNREILDESLRLLDEEEATDNDLRAKFKERWQRTPSNELYKPLRAEGTNFRTVLDKAVQADGQVKECYQSHRDTIVLLCKPEPELNAAIPSANPAKTMQGSEVVNVLKSLLSNLDEVKKEREGLENDLKSVNFDMTSKFLTALAQDGVINEEALSVTELDRVYGGLTTKVQESLKKQEGLLKNIQVSHQEFSKMKQSNNEANLREEVLKNLATAYDNFVELVANLKEGTKFYNELTEILVRFQNKCSDIVFARKTER

Target: ubiquitin (15N-Ub) (UniProt P0CG48 1-76)
Experiment: NMR titration

Row | Binder | Kd [µM]
1 | B1 | ~50
2 | B2 | ~50
